Target: type I collagen (triple helix)
Experiment: SPR
Details: scale: molecules of HSP47 per triple helix of type I collagen

- stoichiometry N: > 7
B1: recombinant mouse HSP47 (natural protein)
chain: AEVKKPLEAAAPGTAEKLSSKATTLAERSTGLAFSLYQAMAKDQAVENILLSPLVVASSLGLVSLGGKATTASQAKAVLSAEKLRDEEVHTGLGELLRSLSNSTARNVTWKLGSRLYGPSSVSFADDFVRSSKQHYNCEHSKINFRDKRSALQSINEWASQTTDGKLPEVTKDVERTDGALLVNAMFFKPHWDEKFHHKMVDNRGFMVTRSYTVGVTMMHRTGLYNYYDDEKEKLQMVEMPLAHKLSSLIILMPHHVEPLERLEKLLTKEQLKAWMGKMQKKAVAISLPKGVVEVTHDLQKHLAGLGLTEAIDKNKADLSRMSGKKDLYLASVFHATAFEWDTEGNPFDQDIYGREELRSPKLFYADHPFIFLVRDNQSGSLLFIGRLVRPKGDKMRDEL
